Assay results: the supplement of paper PMC7877785
± gives the uncertainty stated by the source.

Experiment: self-splicing fitness, log relative to wild type (ln ratio); higher = more splicing; Tetrahymena group I intron in knt gene, E. coli kanamycin selection, DiMSum; sequences stand for … in CUCUCU…GGAGGGAAAAGUUAUCAGGCAUGCACCUGGUAGCUAGUCUUUAAACCAAUAGAUUGCAUCGGUUUAAAAGGCAAGACCGUCAAAUUGCGGGAAAGGGGUCAACAGCCGUUCAGUACCAAGUCUCAGGGGAAACUUUGAGAUGGCCUUGCAAAGGGUAUGGUAAUAAGCUGACGGACAUGGUCCUAACCACGCAGCCAAGUCCUAAGUCAACAGAUCUUCUGUUGAUAUGGAUGCAGUUCACAGACUAAAUGUCGGUCGGGGAAGAUGUAUUCUUCUCAUAAGAUAUAGUCGGACCUCUCCUUAAUGGGAGCUAGCGGAUGAAGUGAUGCAACACUGGAGCCGCUGGGAACUAAUUUGUAUGCGAAAGUAUAUUGAUUAGUUUUGGAGUACUCGUGGUCG
Procedure, shortened: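 Fitness was computed with DiMSum as the error-weighted combination of replicate fold changes, kanamycin versus none, each normalised to wild type. The library randomised all eight intron nucleotides of the P1ex region, with the intron placed in the knt kanamycin-resistance gene on pET-22b(+) in E. coli BL21(DE3). Six replicate transformations were grown overnight at 37°C or 30°C on LB agar with or without 25 μg/mL kanamycin, plus 100 μg/mL carbenicillin, 50 μM IPTG and 0.2% rhamnose. Pooled colonies were amplicon-sequenced on an Illumina HiSeq 2500.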

Row | Sequence | self-splicing fitness (ln) (37 °C) | self-splicing fitness (ln) (30 °C)
1 | UUAUAGCAAUAUUACGUCAU | -2.98 ± 0.37 | 
2 | GUGAAGCAAUAUUACGCCUU | -0.45 ± 0.17 | -0.0499 ± 0.15
3 | GAGAAGCAAUAUUACGGAGC | -1.84 ± 0.23 | -3.83 ± 0.4
4 | UGCGAGCAAUAUUACGACAG | -1.29 ± 0.18 | -2.55 ± 0.21
5 | GAAUAGCAAUAUUACGCACA | 1.18 ± 0.18 | -0.518 ± 0.15
6 | CCCUAGCAAUAUUACGCGCG | -3.35 ± 0.27 | -3.46 ± 0.16
7 | GUCCAGCAAUAUUACGAAUC | 0.114 ± 0.2 | 0.437 ± 0.16
8 | UUACAGCAAUAUUACGACUG | -1.81 ± 0.12 | -1.26 ± 0.08
9 | CUUCAGCAAUAUUACGGAAC | -2.12 ± 0.33 | -2.45 ± 0.16
10 | UGCUAGCAAUAUUACGAAGU | -2.51 ± 0.49 | -2.88 ± 0.3
11 | AGCUAGCAAUAUUACGAAAU | -1.83 ± 0.2 | -2.4 ± 0.15
12 | UGCCAGCAAUAUUACGGCGC | -3.04 ± 0.23 | -3.8 ± 0.27
13 | CUGUAGCAAUAUUACGUUAC | -1.72 ± 0.32 | -2.77 ± 0.34
14 | CGCCAGCAAUAUUACGAAGC | -1.71 ± 0.19 | 
15 | CAUUAGCAAUAUUACGGGGC | -1.95 ± 0.23 | -3.44 ± 0.23
16 | CACCAGCAAUAUUACGGAAU | -2.18 ± 0.16 | -2.97 ± 0.14
17 | CCCUAGCAAUAUUACGCUAA | -2.55 ± 0.22 | -4.17 ± 0.3
18 | AUGAAGCAAUAUUACGUUUG | -1.56 ± 0.13 | -2.28 ± 0.11
19 | UCGCAGCAAUAUUACGCCGA | -2.26 ± 0.22 | -1.83 ± 0.19
20 | ACUAAGCAAUAUUACGAGUU | -3.42 ± 0.25 | -3.56 ± 0.15
21 | ACACAGCAAUAUUACGAGCU | -0.406 ± 0.085 | -0.901 ± 0.077
22 | CACAAGCAAUAUUACGGAUC | -2.09 ± 0.13 | -4.63 ± 0.39

Row | Sequence | self-splicing fitness (ln) (37 °C) | self-splicing fitness (ln) (30 °C)
23 | UCCAAGCAAUAUUACGUGUU | -1.85 ± 0.13 | -3.46 ± 0.15
24 | CAUCAGCAAUAUUACGAAUG | -2.05 ± 0.14 | -3.18 ± 0.16
25 | ACGGAGCAAUAUUACGUUCC | -2.01 ± 0.37 | -3.92 ± 0.47
26 | CUAGAGCAAUAUUACGGUAU | -1.76 ± 0.49 | 
27 | AGCGAGCAAUAUUACGGGAU | -2.76 ± 0.27 | -3.92 ± 0.28
28 | AAGCAGCAAUAUUACGCCCC | -0.107 ± 0.19 | -0.65 ± 0.15
29 | CUACAGCAAUAUUACGGAUC | -2.51 ± 0.26 | -4.11 ± 0.3
30 | CCACAGCAAUAUUACGGCUG | -2.48 ± 0.15 | -3.26 ± 0.15
31 | AGAAAGCAAUAUUACGAUCU | -0.99 ± 0.11 | -2.88 ± 0.11
32 | AGAGAGCAAUAUUACGGCGG |  | -2.77 ± 0.48
33 | GCCAAGCAAUAUUACGUCCC | -0.607 ± 0.3 | -0.579 ± 0.15
34 | UCACAGCAAUAUUACGGAUG | -1.89 ± 0.13 | -2.4 ± 0.12
35 | CUUGAGCAAUAUUACGGCUC | -1.67 ± 0.36 | 
36 | GUCUAGCAAUAUUACGAAAG | -2.42 ± 0.39 | 
37 | CAUCAGCAAUAUUACGGAAA | -0.167 ± 0.14 | -2.66 ± 0.23
38 | GUAUAGCAAUAUUACGUGGU | -1.29 ± 0.15 | -3.14 ± 0.23
39 | GUGGAGCAAUAUUACGAGUU | -1.7 ± 0.43 | 
40 | GACUAGCAAUAUUACGAACA | -0.254 ± 0.17 | -1.02 ± 0.16
41 | CUCCAGCAAUAUUACGGGUU | -2.91 ± 0.2 | -3.83 ± 0.2
42 | UGUCAGCAAUAUUACGUUAG | -0.704 ± 0.065 | -1.07 ± 0.067
43 | CAACAGCAAUAUUACGAUAC | -2.91 ± 0.37 | -3.29 ± 0.28
44 | CGACAGCAAUAUUACGGGUG | 0.0253 ± 0.063 | -0.537 ± 0.043
